Target: the molecule itself
Experiment: negative-stain EM + ThT fluorescence

B1: CPEB3 residues 1-217 (prion-like domain 1 construct) (domain or fragment)
chain: MQDDLLMDKSKTQPQPQQQQRQQQQPQPESSVSEAPSTPLSSETPKPEENSAVPALSPAAAPPAPNGPDKMQMESPLLPGLSFHQPPQQPPPPQEPAAPGASLSPSFGSTWSTGTTNAVEDSFFQGITPVNGTMLFQNFPHHVNPVFGGTFSPQIGLAQTQHHQQPPPPAPAPQPAQPAQPPQAQPPQQRRSPASPSQAPYAQRSAAAAYGHQPIMT
B1: binds.
